In the nanobody polyreactivity screen of Harvey et al. (2022):

Experiment: yeast display, Sf9 membrane polyspecificity reagent, FACS + sequencing; frameworks hold sequencing errors
Procedure, shortened: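 Polyreactivity labels are assigned by the sorting gate from which each nanobody was recovered. The gates were low and high (top ~1%), set on anti-HA fluorescence for expression and streptavidin fluorescence for reagent binding. Before sorting, galactose-induced (36–48 hours) yeast display cells were stained for 1 hour at 4 °C with 10% biotinylated, detergent-solubilized Sf9 membrane reagent.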

Sequence	polyreactivity (PSR sort gate)
QVQLVESGGGLVQAGGSLRLSCAASGRIFPEYAMGWYRQAPGKERELVAAITSGGNYADSVKGRFTISRDNAKNTVYLQMNSLKPEDTAVYYCAAVYLWYGSWPLHFAAYDYWGQGTQVTVSS	low polyreactivity
QVQLVESGGGLVQAGGSLRLSCAASGRIFAKYAMGWYRQAPGTERELVAAISWGGGSTYYADSVKGRFTISRDNAKNTVYLQMNSLKPEDTAVYYCAARIPKQRDVRGSGMNYWGQGTQVTVSS	high polyreactivity
QVQLVESGGGLVQAGGSLRLSCAASGRTLDKYAIGWYRQAPGKERELVAAITSGGTTKYADSVKGRFTISRDNAKNTVYLQMNSLKPEVTAVYYCAKDLEGNPHFSYGIDFDYWGQGTQVTVSS	low polyreactivity
QVQLVESGGGLVQAGGSLRLSCAASGFYYYVMVWYRQAPGKERELVAGITASGGSTYADSVKGRFTISRDNAMYTVYLQMNSLKPEDTAVYYCAAGFVGTNYTLHGFSYEYWGQGTQVTVSS	low polyreactivity
QVQLVESGGGLVQAGGSLRLSCAASGSIFDRYAMGWYRQAPGKERELVAAITGSGGSTYYADSVKGRFTISRDNAKNTVYLQMNSLKPEDTAVYYCNARARGAYVRYGYWGQGTQVTVSS	high polyreactivity
QVQLVESGGGLVQAGGSLRLSCAASGSTFSNNSIGWYRQAPWKETELVAAISWYGDSTYADSVKGRFTISRDNAKNTVYLQMNSLKAEATAVYYCAKDTIITPGRRKSPRDRHGYWGQGTQVTVSS	low polyreactivity
QVQLVESGGGLVQAGGSLRLSCAASGRNFKYNAMGWYRQAPGKERELVAVITSGGSTYYADSVKGRFTISRDNAKNTVYLQMNSLKPEDTAVYYCAKKYYKVHKFDYWGQGTQVTVSS	low polyreactivity
QVQLVESGGGLVQAGGSLRLSCAASGFIFSYNAMGWYRQAPGKERELVAAISARGGSTYYADSVKGRFTISRDNAKNTVYLQMNSLKPEDTAVYYCNRKQAGHAQGYDYWGQGTQVTVSS	high polyreactivity
QVQLVESGGGLVQAGGSLRLSCAASGSTFVYYAMGWYRQAPGKERELVAAITGSVDSTYYADSVKGRFTISRDNAKNTVYLQMNSLKPEDTAVYYCAADTYSTYWGQGTQVTVSS	low polyreactivity
QVQLVESGGGLVQAGGSLRLSCAASGRIFQWYAMGWYRQAPGKERELVATISDGDSTNYADSVKGRFTISRDNAKNTVYFQMNSLKPEDTAVYYCAALDIYYDSYYWYDYWGQGTQVTVSS	high polyreactivity
QVQLVESGRGLVQAGGSLRLSCAASGSIFGYYAMGWYRQAPGKERELVAAISRSGGSTYYADSVKGRFTISRDNAKNTVYLQMNSLKPEDTAVYYCAADDYPYGNYYWGQGTQVTVSS	high polyreactivity
QVQLVESGGGLVQAGGSLRLSCAASGFIFGYYAMGWYRQAPGKERELVAAISSRGGSTYYADSVKGRFTISRDNAKNTVYLQMNSLIPEDTAVYYCAVRLVSFRHNFGQYDYWGQGTQLTVSS	high polyreactivity
QVQLVESGGGLVQAGGSLRLSCAASGLIFGGYAMGWYRQAPGKERELVATITSGGSTNYADSVKGRFTISRDNAKNTVYLQMNSLKPEDTAVYYCAAAERQGFPSVYPTYQWDYDYWGQGTQVTVSS	low polyreactivity
QVQLVESGGDLVQAGGSLRLSCAATGYTFLRYTMGWYRQAPGKERELVAAITSGTSTYYADSVKGRFTISRDNEKNTVYLQMNSLKPEDTAVYYCDKTPTRQRYGHWGQGTQVTVSS	high polyreactivity
QVQLVESGGGLVQAGGSLRLICAASGIIFRSYAMGWYRQAPGKERELVAGISLSGGSTYYADSVKGRFTISRDNAKNTVYLQMNSLKPEDTAVYYCAARRRYKSGYWGQGTQVTVSS	high polyreactivity
QVQLVESGGGLVQAGGSLRLSCAASGFIFLYYAMGWYRQAPGKERELVAAISRSGGRTYYADSVKGRFTISRDNAKNTVYLQMNSLKPEDTAVYYCAADRLGSISGYDYWGQGTQVTVSS	high polyreactivity
QVQHVESGGGLVQAGGSLRLSCAASGRTFDSYAMGWYRQAPGKERELVAAIYADSVKGRFTISRDNAKNTVYLQMNSLKPEDTAVYYCAAETYSGQTYLGEYDYWGQGTQVTVSS	low polyreactivity
QVQLVESGGGLVQAGGSLRLSCAASGNILASNAMGWYRQAPGKERELVAAITISGDTTYYADSVKGRFTISRDNAKNTVYLQMNSLKPEDTAVYYCNAVSFIVNGGYDGDYWGQGTQVTVSS	low polyreactivity
QVQLVESGGGLVQAGGSLRLSCAASGLIFEYYAMGWYRQAPGKERELVAVINWSGASTYYADSVKGRFTITRDYAKNTVYLQMNSLKPEDTAVYYCAAGVLITGLRFDYWGQGTQVTVSS	low polyreactivity
QVQLVESGGGLVQAGGSLRLSCAASGSTFGTYAMGWSRQAPGKERELVAAITSGGSTDYADSVKGRFTISRDNAKNTVYLQMNSLKPEDTAVYYCNATWELLSYYYLFWGYDYWGQGTQVTVSS	low polyreactivity
HVQLVESGGGLVQAGGSLRLSCAASGRIFWRYAMGWYRQAPGKEREFVADITYSGGSTYYADSVKGRFTISRDNAKNTVYLQMNSLKPEDTAVYYCAAGWVRPWATYKLDYWGQGTQVTVSS	high polyreactivity
QVQLVESGGGLVQAGGSLRLSCAASGSIFYTYAMGWYRQAPGKERELVAAISSGGSTTYADSVKGRFTISRDNAKNTVYLQMKSLKPEDTAVYYCNTSYRKKKRYYYWGQGTQVTVSS	high polyreactivity

Sequence	polyreactivity (PSR sort gate)
QVQVVESGGGLVQAGGSLRLSCAASGSTFVTYAMGWYRQARVKERELVAGISTGDITNYADSVKVRFTISRDNAKNTVYLQINRLKPEDTAVYYCSADLIQGAAPFRYDYWGQGTQVTVSS	low polyreactivity
QVQLVESGGGLVQSGGSLRLSCAAYGLILTHYSMGRYRQAPGKESELVAAIDYGGGSNTYYADSVKGLFTISRDNAKNTDYLQMNSLKPEDTAVYYCAAYRAGNSYDPRLNYWGQGTQVTVSS	high polyreactivity
QVHLVESGGGLVQAGGSLRLSCAASGLIFVKYALGWYRQAPGKEREFVAAITRSGGTTYYADSVKGRFTISRDNAKNTVYLQMNSLKPEDTAVYYCAAGVVIYFFGGGDYWGQGTQVTVSS	low polyreactivity
QVQLVESGGGLVQAGGSLRLSCAASGSIFPLNAMGWYRQAPGKERELVASISTGSSTYYADSVKGRFTISRDNAKNTVYLQMNSLKPEDTAVYYCAVDRVLFSDYYRGYEYNYWGQGTQVTVSS	low polyreactivity
QVQLQESGGGLVQAGGSLRLSCAASGTISQEDCMGWYRQATGKQREFVAAIGLGSNTNYADSLKGRFTISRDNAKNTVYLLMNSLKPEDTAVYYCAVSVWQYSDHVYRGQGTQVTVSS	low polyreactivity
QVQLVESGGGLVQAGGSLRLSCAASGRTFSYNTMGCYRQAPGKERELVARITWGGGSTNYADSVKGRFTISRDNAKNTVYLQMNSLKPEDTAVYYCAREYSSVYWVRHLFYYWGQGTQVTVSS	low polyreactivity
QDQLVESGGGLVQAGGSLRLSCAASGNIFPSYVMGWYRQAPGKERELVAAITWKGGSTYYADSVKGRFTISRDNAKNTVYLQMNSLKPEDTAVYYCNAVGNLYSRDDYWGQGTQVTVSS	low polyreactivity
QVQLVESRGGLVQAGGSLRLISAASGSSFLSYAMGWYRQAPGKERELVAAITGSGGNTYYADSVKGRFTISRDNAKNTVYLQMNSLIPEDTAVYYCAARAPTWAGTYGYWGQGTQVTVSS	high polyreactivity
QVQLVESGGRLVQAGGSLRLSCAASGRTIRYNAMGWYRQAPGKERELVASISDGGSTNYADSVKGRFTISRDNAKNTVYLQMNSLKPEDTAVYYCALAGYRRYGYVYWGQGTQVTVSS	low polyreactivity
QVQLVESGGGLVQAGGSLRLSCAASGSIIYLYAMGWYRQAPGKEREFVAAITWRGASTYYADSVKGRFTISRYNAKNTVYLQMNSLKPEDTAVYYCAAKLPRVYGYGFDYWGQGTQVTVSS	low polyreactivity
QVQLVESGVGLVQAGGSLRLSCAASGRIFHLYAMGWYRQAPGKERELVAAITFSGGSTYYADSVKGRFTISRDNAMNTVYLQMNSLKPEDTAVYYFAKRSFYWFSSRLPFKYDYWGQGTQVTVSS	low polyreactivity
QVQLVESGGGLVQAGGSLRLSCDASGSIFNYYAMGWYRQAPGKERELVATITRGGSTYYADSVKGRFTISRDNAKNTVYLQMNILKPEDTAVYYCAKVGRSTAYQNGYDYWGQGTQVTVSS	low polyreactivity
QVQIVESGGCLVQAGGSLRLSCAASGGTIGGNAMGWYRQAPGKQREMVAAITDIGGSTYYSDSVKGRFTISRDNAKNTVSLQKNCLKPEDTSVYFCATDEASNQDATYLYYYWGQGTQVTVSS	low polyreactivity
QVQLVESGGGLVQAGGSLRLSCAASGSTFKWYAMGWYRQAPGKERELVATISSGGSTNYADSVKGRFTISRDNAKNTVYLQMNSLKPEDTAVYYCAAANFKWGQGTQVTVTS	low polyreactivity
QVQLVESGGGLVQAGGSLRLSCAASGRIVSVNAMGWYRQAPGKERVLVAAITSGGRTNYADSVKGRFTISRDNAKNTVYLQMNSLNPEDTAVYFCAAPYLKGGEDEYWGQGTQVTVSS	high polyreactivity
QVQLVESGGRLVQAGGSLRLSCDPSGRTFWYYAMGWYRQAPGKERELVASISLSGSRTNYADSVKGRFTISRDNAKNTVYLQMNSLKPEDTAVYYCAADNFRQFGEYDYWGQGTQVTLSS	low polyreactivity
QVQLVESGGGLVQAGGSLRLSCAASGRIFYAYAMGWYRQAPGKERELVAAISWSGGSTYYADSVKGRFTISRDNAKNTVNLQMNSLKPEDTAVYYCNADYWGQGTQVTVSS	low polyreactivity
QVQLVESGGGLVQAGGSLRLSCAASGSTFRYYSMGWYRQAPGKERELVAVISKSGARTYYADSVKGRFTISRDNAKNTVYLQMNSLQPEETSVYYCNAVFKLDSHYAMCYWGQGTQVTVSS	high polyreactivity
QVQLVESGGGLVQAGGSLPLSCAASGRIYGSYAMGWYRQAPGKERELVADISRRGGGTYYADSVKGRFTISRDNAKNTVYLQMNSLKPEDTAFYYCAKDWYGRYYYWGQGTQVTVSS	high polyreactivity
QVQLVESGGGLVQAGGSLRLICAASGRTIDHYAMGWYRQAPGKERELVAAISTTGGSTYYADSVKGRFTISRDNAKNTVYLQMNSLKPEDTAVYYCAARGLRTGGYWGQGTQVTVSS	high polyreactivity
QVQLVESGGGLVQAGGSLRLSCAASGNIFGGNAMGWYRQAPGKERELVAAMTRGGSTYYADSVKGRFTISRDNAKNTVYLQMNSLKPEATAVYYCAKSYRLRSDYDYWGQGTQVTVSS	low polyreactivity
